Test results as given in paper doi:10.1101/2021.06.06.446989.
Like-named read-outs stand apart in the source and are kept apart here.

Experiments:
[1] = biological target: RXFP1, wild-type receptor expressed on HEK293T cells (human) (UniProt Q9HBX9); assay: saturation binding of Europium-labelled ligand on cells
[2] = biological target: RXFP2F11, chimera of the LDLa and GDxxGWxxxF motif (Met1-Phe51) of RXFP2 and the remainder of RXFP1 (human); assay: as above
[3] = biological target: RXFP1(1-72), RXFP1 LDLa module and its 32-residue linker (human); assay: NMR titration
[4] = biological target: RXFP2(1-65)-ExLink2 (human); assay: NMR titration
[5] = biological target: RXFP1(1-72), RXFP1 LDLa module and its 32-residue linker (human); assay: NMR titration; remark: listed apart in the source
[6] = biological target: RXFP2(1-65)-ExLink2 (human); assay: NMR titration; remark: listed apart in the source
[7] = biological target: RXFP2(1-65), RXFP2 LDLa module and its 26-residue linker (human); assay: NMR titration
[8] = biological target: D42A-RXFP1(1-72) (human); assay: NMR titration
[9] = biological target: W46A-RXFP1(1-72) (human); assay: NMR titration
[10] = biological target: RXFP1(1-72), RXFP1 LDLa module and its 32-residue linker (human); assay: 15N-CPMG relaxation dispersion NMR
[11] = biological target: RXFP1(1-72)-L7K/K17A (human); assay: 15N-CPMG relaxation dispersion NMR

Chain of UniProt Q9HBX9 (Q9HBX9 whole entry): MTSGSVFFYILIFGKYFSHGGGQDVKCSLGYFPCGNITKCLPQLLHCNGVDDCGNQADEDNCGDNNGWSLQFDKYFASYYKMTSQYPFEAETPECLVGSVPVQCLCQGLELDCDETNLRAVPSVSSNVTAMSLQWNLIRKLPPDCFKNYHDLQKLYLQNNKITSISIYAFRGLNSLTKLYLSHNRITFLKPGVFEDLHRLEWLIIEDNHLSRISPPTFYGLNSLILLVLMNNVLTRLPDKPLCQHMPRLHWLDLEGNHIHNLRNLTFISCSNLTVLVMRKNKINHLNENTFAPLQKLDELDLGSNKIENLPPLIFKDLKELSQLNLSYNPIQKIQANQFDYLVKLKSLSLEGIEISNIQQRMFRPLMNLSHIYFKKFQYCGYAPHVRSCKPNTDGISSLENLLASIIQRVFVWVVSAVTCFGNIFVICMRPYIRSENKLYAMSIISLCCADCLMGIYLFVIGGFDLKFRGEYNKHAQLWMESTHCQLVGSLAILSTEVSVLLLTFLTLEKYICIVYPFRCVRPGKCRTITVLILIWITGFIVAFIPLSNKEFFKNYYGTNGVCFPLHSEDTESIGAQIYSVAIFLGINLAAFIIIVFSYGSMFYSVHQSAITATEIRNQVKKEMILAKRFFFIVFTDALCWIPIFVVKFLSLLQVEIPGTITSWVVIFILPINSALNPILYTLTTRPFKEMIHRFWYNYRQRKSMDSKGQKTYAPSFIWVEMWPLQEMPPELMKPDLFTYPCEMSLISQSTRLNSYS

Kd [1]	Kd [2]	Kd [3]	Kd [4]	Kd [5]	Kd [6]	Kd [7]	fold decrease in affinity against wild-type RXFP1(1-72) [8]	fold decrease in affinity against wild-type RXFP1(1-72) [9]	Kd [10]	Kd [11]	Substance
0.0006 µM	> 0.02 µM	–	–	–	–	–	–	–	–	–	H2 relaxin, native recombinant (serelaxin), Europium-labelled for the binding assay (ligand)
–	–	442 µM	482 µM	85 µM	171 µM	205 µM	4 fold	4 fold	25 µM	30 µM	amidated H2 relaxin (both the A and B-chain C-termini amidated) (ligand)
